In patent US20130115678 one finds activity (fidelity index) data, which are given here for one substance.

What all share (test): cleavage_in_vitro
The target in data set [1] is T1, HindIII (Haemophilus influenzae Rd) (UniProt P43870).
T1 sequence: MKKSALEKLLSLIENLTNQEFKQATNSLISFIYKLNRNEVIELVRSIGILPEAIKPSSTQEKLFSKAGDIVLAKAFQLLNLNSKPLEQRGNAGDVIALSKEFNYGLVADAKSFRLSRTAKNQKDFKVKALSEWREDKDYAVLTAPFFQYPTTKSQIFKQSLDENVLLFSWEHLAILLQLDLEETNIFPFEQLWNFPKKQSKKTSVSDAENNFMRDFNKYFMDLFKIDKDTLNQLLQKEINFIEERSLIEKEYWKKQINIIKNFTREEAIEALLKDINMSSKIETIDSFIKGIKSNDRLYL
The settings on record: NEB4, 37 C, Mg2+; FI NEB1-3: 32, 250, 4000.

Data set [2] relates to T2, NcoI-HF A2T/R31A (Nocardia corallina).
T2 sequence: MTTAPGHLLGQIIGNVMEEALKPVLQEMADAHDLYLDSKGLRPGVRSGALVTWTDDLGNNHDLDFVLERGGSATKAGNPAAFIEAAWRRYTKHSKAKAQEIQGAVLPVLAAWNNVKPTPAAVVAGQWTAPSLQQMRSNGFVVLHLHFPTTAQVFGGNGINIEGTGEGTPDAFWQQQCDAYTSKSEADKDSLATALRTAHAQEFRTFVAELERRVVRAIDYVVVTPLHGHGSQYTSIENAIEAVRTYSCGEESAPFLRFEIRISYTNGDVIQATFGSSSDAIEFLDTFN
The settings on record: NEB4, 37 C, Mg2+; Table 3 prints >=64000; FI NEB1-3: >=4000, >=4000, >=1000.

The test system of data set [3] is T3, SspI (Sphaerotilus species).
T3 sequence: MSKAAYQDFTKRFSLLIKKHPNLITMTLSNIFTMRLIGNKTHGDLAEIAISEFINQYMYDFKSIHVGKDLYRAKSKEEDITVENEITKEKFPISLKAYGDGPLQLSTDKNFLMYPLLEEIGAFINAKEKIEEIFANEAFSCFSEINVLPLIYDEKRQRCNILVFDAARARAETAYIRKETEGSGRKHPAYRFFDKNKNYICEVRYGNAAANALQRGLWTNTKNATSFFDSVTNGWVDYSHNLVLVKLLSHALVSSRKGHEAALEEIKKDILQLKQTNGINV
The settings on record: NEB4, 37 C, Mg2+; FI NEB1-3: 64, 16, 32.

Data set [4] relates to T4, BsmBI (Bacillus stearothermophilus).
T4 sequence: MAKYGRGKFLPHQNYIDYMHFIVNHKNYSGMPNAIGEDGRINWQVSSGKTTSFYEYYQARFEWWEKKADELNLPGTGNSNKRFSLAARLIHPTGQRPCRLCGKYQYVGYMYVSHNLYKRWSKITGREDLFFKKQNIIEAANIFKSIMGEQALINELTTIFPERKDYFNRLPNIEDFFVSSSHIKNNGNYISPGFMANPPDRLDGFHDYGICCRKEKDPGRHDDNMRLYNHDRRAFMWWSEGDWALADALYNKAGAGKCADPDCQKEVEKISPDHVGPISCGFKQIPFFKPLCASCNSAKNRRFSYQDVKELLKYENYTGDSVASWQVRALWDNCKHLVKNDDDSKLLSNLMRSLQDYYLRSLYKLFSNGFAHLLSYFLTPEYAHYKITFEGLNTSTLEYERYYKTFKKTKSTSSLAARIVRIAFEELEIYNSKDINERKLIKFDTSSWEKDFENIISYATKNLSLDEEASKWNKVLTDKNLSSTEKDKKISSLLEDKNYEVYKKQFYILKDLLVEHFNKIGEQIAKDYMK
The settings on record: NEB4, 55 C, Mg2+; FI NEB1-3: 1, 8, 120.

In data set [5] the target is EcoRI-HF K62E (Escherichia coli RY13) (UniProt P00642). The settings on record: NEB4, 37 C, Mg2+; FI NEB1-3: 2000, 4000, 250.
In data set [6] the test system is T5, SbfI (Streptomyces species Bf-61).
T5 sequence: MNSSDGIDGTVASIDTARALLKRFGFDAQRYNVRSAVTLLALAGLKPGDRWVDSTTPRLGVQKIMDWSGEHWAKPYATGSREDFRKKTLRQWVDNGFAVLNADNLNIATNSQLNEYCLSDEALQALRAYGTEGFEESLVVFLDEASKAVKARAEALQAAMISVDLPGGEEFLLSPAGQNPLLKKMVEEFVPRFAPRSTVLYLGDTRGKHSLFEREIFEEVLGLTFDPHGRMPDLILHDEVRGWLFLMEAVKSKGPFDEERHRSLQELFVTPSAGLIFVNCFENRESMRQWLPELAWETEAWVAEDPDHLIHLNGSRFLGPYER
The settings on record: NEB4, 37 C, Mg2+; FI NEB1-3: 32, 8, 8.

Data set [7] deals with T6, SapI (Saccharopolyspora sp.).
T6 sequence: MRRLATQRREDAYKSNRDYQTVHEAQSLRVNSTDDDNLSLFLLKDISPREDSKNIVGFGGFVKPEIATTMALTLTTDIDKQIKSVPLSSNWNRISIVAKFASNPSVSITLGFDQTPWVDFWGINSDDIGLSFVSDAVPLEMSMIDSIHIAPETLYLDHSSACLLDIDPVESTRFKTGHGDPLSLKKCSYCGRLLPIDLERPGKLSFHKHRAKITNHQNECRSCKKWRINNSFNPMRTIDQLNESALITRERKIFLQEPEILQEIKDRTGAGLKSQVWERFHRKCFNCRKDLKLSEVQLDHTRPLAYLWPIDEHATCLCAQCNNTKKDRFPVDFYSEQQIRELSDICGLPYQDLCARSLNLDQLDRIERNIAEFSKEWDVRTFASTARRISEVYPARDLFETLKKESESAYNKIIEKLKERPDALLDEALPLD
The settings on record: NEB4, 37 C, Mg2+; FI NEB1-3: 16, 64, 32.

The test system of data set [8] is T7, NcoI (Nocardia corallina).
T7 sequence: T2 sequence with T2A, A31R
The settings on record: NEB4, 37 C, Mg2+; FI NEB1-3: 120, 32, 120.

Data set [9] concerns BstXI-HF N65A (Bacillus stearothermophilus). The settings on record: NEB4, 55 C, Mg2+; FI NEB1-3: >=120, >=250, >=16.

Residue numbers refer to the chain shown, from its start.

Take lambda phage DNA: the activity (fidelity index) in data set [1] is 32; in data set [2] it was over 16000; in [3] it was 16; in data set [4] it was 4; in data set [5] it was 16000; in [6], 8. Further, the values for the activity (fidelity index) in data set [7], in data set [8] and in [9] were 16, 32 and over 250, respectively.
